This assay deals with Recombinant Ebola virus (EBOV) glycoprotein (Ebola virus (Zaire ebolavirus)) (UniProt Q05320). In words: SEC + cross-linking.

As to “Recombinant Ebola virus (EBOV) glycoprotein (from UniProt Q05320) (natural protein)”, the stoichiometry N was 3.
